According to the RNAGym collection of RNA variant scans (doi:10.7554/elife.90254):

B1: OR4K15 (parent)
chain: GUUAACGGUCAUAGGCCAUGGAAACUAGGAGCACCAUUUCGCUGCCAGUGAAGAAAUGAACAAAGAAAAUCUGGGCCAGGCAGGCAUCAAAAGAAAUAGUCUUGCGCUCAACCAGAAAGUCUGUAAUCAUUUUAAGGGUA

Variants of: B1
Assay: self-cleavage, relative activity (ratio to wild type); higher = more cleavage; in vitro, sequencing; the parent is a self-cleaving ribozyme

Variant	self-cleavage
A129U U131C	0.96
A117U A129U	0.62
A111U A117G	0.06
A117G U127A	2.7
U122C A129U	0.49
A116U U127C	0.23
A126U A135G	1.24
U120A A140G	1.13
U120A A140U	1.67
A116G U124C	0.36
A129G U131C	1.38
A114G U120A	0.2
U122C A125G	0.38
U122C A125C	0.72
A117G C128A	1.07
A114U A134G	0.04
A126G U139A	0
C113U U120C	0.04
A114C A117G	0.05
A118G U139G	0.07
U122C A126U	1.12
U124C U130C	0.57
U124C U130G	0.87
U120C U131C	0.85

Variant	self-cleavage
G115A U132G	0.01
A111G U127A	0.01
A111G U127G	0.02
A111G U127C	0.01
A114C G137A	0.07
U120A U127C	1.67
U124C A126G	0.48
U120A U133A	1.81
C121A U132A	1.42
C112U A129G	0.01
A129U U132C	1.12
U120G	1.31
U120A	1.61
U120C	0.8
G119C U132C	1.13
A117U U130C	1.05
A111G G136U	0.02
U127C	0.68
U127A	1.6
U127G	1.32
U120C A125G	0.43
U120C A125U	1.38
A111U A114U	0.02
A114C U124C	0.03

Variant	self-cleavage
A118U U131G	0.62
A114G A118C	0.11
A114G A118U	0.04
A125G A135U	0.54
U127C A135G	0.83
A125U U131C	2.47
U120C A129G	0.63
U122A A125U	2.05
A111U U120C	0.03
U122A	1.21
U122G	2.57
U122C	0.93
A111G A135G	0.02
A114G C128U	0.11
U122A A135G	2.11
U127G A129G	0.97
A129G U133C	1.42
A116C U131C	0
A129U A134U	1.18
A116U A134U	0.33
U124A U133G	0.43
C121U U127C	1.46
G119A U122C	1.11
U120A U132C	1.37

Variant	self-cleavage
A114G A116U	0.05
C112A A140G	0.02
A126G A129G	0.97
A118G A140U	1.28
A118G A140G	1.32
A111U A125G	0.01
A126U U127C	0.5
A114G U124G	0.21
A114G U124C	0.07
C112U A118G	0
A129C U130C	0.63
A116G U130A	0.51
A118U U130C	0.4
A125U A134G	1.48
U127C U139C	0.89
A116G A118G	0.22
A118G A126G	0.83
A111U A116G	0.04
U120A A135G	1.1
U120C U127C	0.43
A117G U130C	0.39
A117G U130A	0.26
C113A A140G	0
A117G A125G	0.66

Variant	self-cleavage
A116G U122C	0.4
U120C U130A	0.71
G119A A126G	1.98
A126G U127A	1.77
A126G U127C	0.83
A117U A125G	0.99
U120A U130A	0.54
A114U G123A	0.11
U124C U127C	0.84
A125C A126G	0.12
U120G U130A	1.2
A116G A125G	0.23
A129C U133A	1.68
A126C U132G	0.89
U124C A135C	0.06
U124C A135G	1.33
A110U U130C	1.06
A118G U133C	1.23
A117U U133C	1.23
A114G U127A	0.47
A118U U127C	0.02
U122C G123A	1.6
U122C A140G	1.32
U122C A140U	1.13

Variant	self-cleavage
A111U A129G	0.19
A114C U127C	0
A114U A116G	0.01
A114C A125G	0.01
A111C U132C	0.01
U122C U127C	0.25
A111G A117C	0
A111G A117U	0
A129C U132C	0.98
A117G U131C	1.15
A114G A134G	0.63
U127C U130A	0.35
A116U A118G	0.07
G123A A126G	1.34
A118U A125G	0.86
A111C A135U	0.03
U120A U124C	1.04
A117U A118G	0.97
A117U A118C	0.51
A118U U122A	1.08
U127C U132A	0.62
A116C U130C	0.06
U127C U133A	1.7
A117C G136A	0.78

Variant	self-cleavage
A117G U120C	0.23
A116G A117U	0.44
A116G U120C	0.27
A114U A117G	0.04
A116G U132C	0.54
A117G U124C	0.69
A114U A118U	0.02
U122C U139A	1.1
U122C U131G	0.88
U122C U131C	1.13
U122C U131A	1.25
A116U A126U	0.21
G123A A135G	2.16
U124G A125U	1.25
U124G A125G	0.6
A126U U139A	1.99
A110U U124A	0.9
A118U A126G	0.17
U130A U131C	1.75
A125G A140G	0.69
A111G C112G	0
C112G A135U	0.01
A114U A140U	0.1
